We go through 1 molecule from patent publication US7708999B2, “Remedies for arthritis” (Kyowa Hakko Kirin Co., Ltd., priority 2001, dated 2010).

For test [1], the system named is rat adjuvant arthritis model. Briefly: Rat adjuvant arthritis model. In kind it is in vivo. How it is done: The rat adjuvant arthritis model was performed in the following manner according to the method of Pearson et al. (Pearson CM. et al., Arthritis Rheum., 5, 654-658, 1962) using Lewis rats (female, 8 weeks old, Japan Charles River).
Mycobacterium butyricum (manufactured by Difco) was suspended in a liquid paraffin (manufactured by Wako Pure Chemical Industries, Ltd.) to a final concentration of 6 mg/mL, and sterilized with a autoclave. The resulting solution was intradermally injected into the rat right hind pad in an amount of 100 μL for sensitization. One group consisted of 8 to 10 rats. Anti-FGF-8 neutralizing antibody KM1334 was dissolved in saline to a final concentration of 2 mg/mL. The solution was intraperitoneally administered to a KM1334 administrated group once a day at a dose of 0.5 mL per 100 g of the body weight for each rat on the sensitization day of the rat adjuvant arthritis model and on days 3, 7, 10, 14 and 17 from the sensitization. To saline administrated group, only saline was intraperitoneally administered instead of the anti-FGF-8 neutralizing antibody KM1334 solution. Further, sodium diclofenac, an antiinflammatory agent, was dissolved in a 0.5 w/v % methyl cellulose solution to a final concentration of 0.3 mg/mL, and the solution was orally administered to a sodium diclofenac administrated group as a positive control once a day at a dose of 1 mL per 100 g of the body weight on days 4, 7 to 11 and 14 to 18 from the adjuvant sensitization day. 50 mg of methotrexate® for injection (manufactured by Wyeth Japan) as a metabolic antagonist was dissolved in a 0.5 w/v % methyl cellulose solution to a final concentration of 0.01 mg/mL, and the solution was administered to a methotrexate administrated group in the same manner as in the sodium diclofenac administrated group. Prednisolone (manufactured by Sigma-Aldrich), a steroidal agent, was suspended in a 0.5 w/v % methyl cellulose solution to a final concentration of 0.3 mg/mL, and the suspension was administered to a prednisolone administrated group in the same manner as in the sodium diclofenac administrated group. Further, a 0.5 w/v % methyl cellulose solution alone was orally administered to a solvent administrated group in the same manner. An untreated group was used, and it was not subjected to sensitization with Mycobacterium butyricum and administration of an agent. The volumes of the adjuvant-treated paw and the adjuvant-untreated paw were measured as time goes by using a device for measuring edemas of rat hind paw (TK-101, manufactured by Unicom).
Using urine collected for 24 hours at day 20 and day 21 after the sensitization, the amounts of glycosaminoglycan, deoxypyridinoline, hydroxyproline and creatinine in urine were measured. The amount of glycosaminoglycan in urine was measured by the DMMB method described in Example 1. The amount of hydroxyproline in urine was measured by the method of Ikeda et al. (Ikeda Shingo et al., Tokyo Eiken Nenpo, 36 277-282, 1985). That is, 0.8 mL of hydrochloric acid for amino acid analysis (manufactured by Kanto Kagaku) was added to 0.8 mL of urine to hydrolyze at 110° C. for 15 hours. To 0.5 mL of the hydrolyzed sample was added 2 mL of a 1.2 mol/L sodium hydroxide solution for neutralization. 1 mL of isopropanol was added to 0.5 mL of the neutralized sample, and 1 ml of an oxidant solution was added. The mixture was stirred well, and allowed to stand at room temperature for 5 minutes. […]

The subject of test [2] is rat monoiodoacetic acid-induced osteoarthritis model. As to the kind of experiment: Rat monoiodoacetic acid-induced osteoarthritis model. In kind it is in vivo. As to conditions: 4 mg/mL, 0.5 mL per 100 g intraperitoneally once; 3 days after monoiodoacetic acid. How it is done:
The rat monoiodoacetic acid-induced osteoarthritis model was produced in the following manner by the method of Guingamp et al. (Guingamp C. et al., Arthritis Rheum., 40, 1670-1679, 1997) using Sprague-Dawley rats (male, 7 weeks old, Japan Charles River).
Monoiodoacetic acid (manufactured by Sigma-Aldrich) prepared with saline to a final concentration of 10 mg/mL was injected into the right knee joint of the rat in an amount of 25 μL. One group consisted of 10 rats. Anti-FGF-8 neutralizing antibody KM1334 was dissolved in saline (manufactured by Otsuka Seiyaku Kojo) to a final concentration of 4 mg/mL, and the antibody solution at a dose of 0.5 mL per 100 g of the body weight was intraperitoneally administered to a KM1334 administrated group once at the injection of monoiodoacetic acid. To saline group, the saline alone was intraperitoneally administered instead of the antibody solution. Further, a sham operated group was arranged, and the saline was injected in the knee joint thereof without the administration of the agent. After 3 days from the injection of monoiodoacetic acid, the joint washing liquid was recovered by the method described in Example 6. The amount of glycosaminoglycan in the joint lavage fluid was measured by the DMMB method described in Example 1.

The mark [3] stands for this setting: adjuvant-untreated paw, score 0 to 4, mean ± standard error.
The mark [4] stands for this setting: urine day 20 to 21, KM1334 intraperitoneally, vs saline group.

B1: KM1334: anti-FGF-8 neutralizing monoclonal antibody produced by hybridoma KM1334 (FERM BP-5451), mouse IgG1 subclass (antibody, V domains shown)
VH: QVQLQQSGAEVARPGASVKLSCKASGYTFTDYYLNWVKQRSGQGLEWIGEIDPGSDSIYYNENLEGRATLTADKSSSTAYMQLNSLTSEDSAVYFCARYGYSRYDVRFVYWGQGTLVTVST
VL: DVLMTQTPLSLPVSLGDQASISCRSSQSLVHSNGRTYLEWYLQKPGQSPKVLIYKVSNRISGVPDRFSGSGSGTDFTLKISRVEAEDLGVYFCFQGSHVPYTFGGGTKLEIK
Turning to B1, in test [1] (Table 1, soft X-ray of calcaneus, adjuvant-untreated paw, day 21, maximum 5, mean ± standard error), the Bone destruction score is given as 3.2 ± 0.5. In test [1] (Table 1, vs saline group, not significant), the “Bone destruction score (% inhibition)” value was 27%. In test [1] (setting [3]), the “Pathological score: Blood cell plasma leak to articular cavity” value is 1.6 ± 0.3 and the “Pathological score: Blood leak around joint” value is 2.0 ± 0.4. Moreover, the “inhibition of the increase in paw volume, adjuvant-untreated paw” value in test [1] (day 21, 2 mg/mL, 0.5 mL per 100 g intraperitoneally, vs saline group) is on record as 69%. In test [1] (urine day 20 to 21, KM1334 intraperitoneally, not significant), the “decrease of the increase in amount of hydroxyproline in urine” value is listed as 48%. Moreover, in test [1] (setting [4]), the “inhibition of the increase in amount of deoxypyridinoline in urine (deoxypyridinoline/creatinine ratio)” value was found to be 41% and the “inhibition of the increase in amount of glycosaminoglycan in urine (glycosaminoglycan/creatinine ratio)” value stood at 73%. Besides, in test [1] (vs saline group), the “Blood cell plasma leak to articular cavity (Percent inhibition)” value is listed as 41% and the “Blood leak around joint (Percent inhibition)” value is recorded as 41%. Further, in test [2], the “inhibition of the increase in concentration of glycosaminoglycan in the joint lavage fluid” value is listed as 42%.
